According to patent US20060026702A1, “Phosphoinositide 3-kinase mediated inhibition of GPCRs” (DUKE UNIVERSITY, priority 2002, published 2006):

Experiments:
phospho-PKB = experiment: PKB activation (phospho-PKB immunoblot) in HEK 293 cells; type: cell-based; conditions: IGF, carbachol or isoproterenol stimulation; HEAT transfected
βARK1 [1] = experiment: βARK1 recruitment to the membrane (immunoblot of membrane fraction); type: cell-based; conditions: 10 μM isoproterenol; HEAT 4 μg
Protocol: Cytosolic and Membrane Fractionation—Cell monolayers were scraped in 1 ml of buffer containing 25 mM Tris-HCl (pH 7.5), 5 mM EDTA, 5 mM EGTA, 1 mM phenylmethylsulfonyl fluoride, 2 μg/ml each of leupeptin and aprotinin and disrupted further by using Dounce homogenizer. Intact cells and nuclei were removed by-centrifugation at 1,000×g for 5 min. The collected supernatant was further subject to a centrifugation at 38,000×g for 25 min. The pellet was resuspended in lysis buffer (1% Nonidet P-40, 10% glycerol, 137 mM NaCl, 20 mM Tris-Cl (ph 7.4), 1 mM phenylmethylsulfonyl fluoride, 20 mM NaF, 1 mM sodium pyrophosphate, 1 mM sodium orthovanadate and 2 μg/ml each of aprotinin and leupeptin) and used as membrane fraction and the supernatant was diluted in lysis buffer and used as the cytosolic fraction. Heart samples also underwent through similar procedures to obtain membrane and cytosolic fractions. Purity of the membrane fraction preparation was confirmed by measuring enzyme activity of the membrane marker enzyme K^+-stimulated p-nitrophenylphosphatase (membrane fraction: 9.4 μmol/mg protein per min, cytosol: 2.6 μmol/mg of protein/min). […]
Cytosolic and membrane fractions were prepared and analyzed for βARK1 associated PI3K activity. […]

βARK1 [2] = target: T1, βARK1 (Bos taurus, UniProt P21146); experiment: Co-immunoprecipitation and GST pull-down with purified βARK1; type: binding; conditions: immunoprecipitated FLAG-HEAT or PI3KΔHEAT-HA
T1 construct: gift from Dr. Robert Lefkowitz
T1 sequence (P21146 1-689): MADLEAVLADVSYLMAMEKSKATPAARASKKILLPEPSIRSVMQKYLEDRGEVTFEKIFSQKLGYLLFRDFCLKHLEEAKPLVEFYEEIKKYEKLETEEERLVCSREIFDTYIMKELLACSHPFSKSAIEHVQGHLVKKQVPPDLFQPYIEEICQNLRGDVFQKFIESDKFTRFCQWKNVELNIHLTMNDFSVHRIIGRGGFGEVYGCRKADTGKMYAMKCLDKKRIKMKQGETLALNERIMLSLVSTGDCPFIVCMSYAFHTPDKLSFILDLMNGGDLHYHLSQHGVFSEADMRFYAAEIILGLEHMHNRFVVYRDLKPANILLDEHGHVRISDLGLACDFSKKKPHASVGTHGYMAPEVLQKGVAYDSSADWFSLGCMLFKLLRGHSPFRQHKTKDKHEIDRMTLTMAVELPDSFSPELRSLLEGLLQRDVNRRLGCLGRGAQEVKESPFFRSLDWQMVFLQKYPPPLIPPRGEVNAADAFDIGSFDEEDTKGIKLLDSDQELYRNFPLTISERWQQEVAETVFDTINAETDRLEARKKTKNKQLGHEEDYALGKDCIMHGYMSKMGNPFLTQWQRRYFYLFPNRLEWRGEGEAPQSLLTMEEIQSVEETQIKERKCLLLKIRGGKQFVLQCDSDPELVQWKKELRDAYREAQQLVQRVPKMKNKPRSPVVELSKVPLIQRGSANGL
Protocol: GST Fusion Protein Expression and Pull-down Experiments—Plasmid DNAs were transformed in Escherichia coli BL21 cells. Overnight cultures were grown in LB medium supplemented with ampicillin (100 μg/ml), diluted to an A600 of 0.2 in the same medium and grown for another 1 hr at 37° C. Cultured cells were then induced with 0.1 mM isopropyl-1-thio-β-D-galactopyranoside for 2 hr. Cell were then pelleted, washed once with 1× phosphate-buffered saline and resuspended in 1× phosphate-buffered saline containing 1 mM phenylmethylsulfonyl fluoride, 2 mg/ml lysozyme and incubated for 15 min on ice. Cells were lysed by adding Triton X-100 1%. Solublized cells were incubated with DNase (300 units) for 15 min on ice and centrifuged at 13,000 rpm for 10 min.
Glutathione-Sepharose beads were added to the supernatant and gently agitated at 4° C. for 2 hr. Beads were washed three times with ice cold 1×PBS containing 1% Triton X-100 followed by three washes with cold PBS without detergent. Protein concentration was determined using a DC protein assay kit (Bio Rad), and the integrity of the fusion protein was analyzed by SDS-polyacrylamide gel electrophoresis and Coomassie staining.
The beads were spun and washed three times with binding buffer followed by three washes with binding buffer without detergent. The beads were resuspended in SDS gel loading buffer and resolved by gel electrophoresis, immunblotting and detection was carried out described later.
FLAG-HEAT and PI3KΔHEAT proteins were immunoprecipitated from cell extracts using monoclonal FLAG and HA antibodies respectively, fractionated by SDS-PAGE and analyzed by immunoblotting with βARK1 monoclonal antibody. […] Levels of expression of HEAT and PI3KΔHEAT proteins were similar (FIG. 8B, lower panel).
To investigate whether there was a direct physical interaction between the HEAT domain of PI3K and βARK1, GST-HEAT fusion protein containing 535-732 amino acid residues of PI3Kγ was produced, which including the entire HEAT domain and flanking upstream 10 amino acids and downstream 7 amino acids. […]

B1: HEAT: 197 amino acid HEAT domain of PI3Kγ, FLAG epitope-tagged (SEQ ID NO: 2), overexpressed in cells (protein, listed as Homo sapiens)
chain: MDYKDDDDKHPIALPKHQPTPDDRVRAEMPNQLRKQLEAIIATDTAEDKELLWHFRYESLKHPKAYPKLFSSVKWGQQEIVAKTYQLLARREVWDQSALDVGLTMQLLDCNFSDENVRAIAVQKLESLEDDDVLHYLLQLVQAVKFEPYHDSALARFLLKRGLRNKRIGHFLFWFLRSEIAQSRHYQQRFAVILEAYLRGCGTA
modifications: FLAG tag
In the case of B1, the “cellular signaling downstream of PI3K (PKB activation)” value (phospho-PKB) is reported as “no effect”, the “membrane recruitment of βARK1 following isoproterenol” value (βARK1 [1]) is reported as “no effect” and the “association with purified βARK1 (immune complexes from HEK 293 extracts)” value (βARK1 [2]) is reported as “found to associate”.
